Measurements from patent US20160287696A1, “PAN POLLEN IMMUNOGENS AND METHODS AND USES FOR IMMUNE RESPONSE MODULATION” (LA JOLLA INSTITUTE FOR ALLERGY AND IMMUNOLOGY, priority 2013, published 2016).

Test system: cultured PBMCs of the allergic donors
Assay: ELISPOT of IL-5 or IFNg production by cultured PBMCs of TG allergic donors in response to peptide
Assay type: cell-based, human
Settings: for NTGA's containing at least one T cell epitope, Th+ (Col 2): NTGA number given = criterion met, TG allergic donors n=20; for No of PG+ & th+ peptides per NTGA / No of PP & Th+ peptides per NTGA: Table 6; for No of PG+ & th+ peptides per NTGA: PG+ peptides recognized by T cells of grass allergic donors (n=20); for No of PP & Th+ peptides per NTGA: PP peptides recognized by T cells of grass allergic donors (n=20); for # Th+: Table 7, peptides per NTGA recognized by T cells of grass allergic donors (n=20)
Text: Table 1 indicates for each of the 397 PG+ peptides in which non-grass pollen species a matching peptide with either less than 3, less than 2 or zero mismatches are found. The number of TG grass allergic donors (n=20) with an in vitro T cell response to the TG peptide sequence is also shown.
A set of 93 proteins from Timothy grass (TG) pollen and the assembly of 822 peptides (15 mers) predicted to promiscuously bind HLA class II molecules shown in Table 9 and the immune reactivity in allergic donors have been reported in PCT application WO 2013/119863. […] Immune reactivity was determined by the production of IL-5 or IFNg from cultured PBMCs of the allergic donors in response to stimulation with a peptide and IL-5 and IFNg were measured by ELISPOT as described in Oseroff C et al, 2010.
In short, T cell immune reactivity was determined using PBMCs isolated from study participants and stored in liquid nitrogen until further use. For experimental testing, PBMCs were thawed and expanded in vitro with TG pollen extract (50 μg/mL) or the peptide pool ([…]). The TG extract and peptide pools had each been previously titrated to determine optimal stimulation concentrations.
Cytokine production by cultured PBMCs in response to antigen stimulation was measured by ELISPOT. Cells (1×10^5 cells/well) were plated and incubated with peptide (10 μg/mL), the peptide pool (5 μg/mL), or the TG extract (50 μg/mL). Phytohaemagglutinin (10 μg/mL) and medium alone were used as positive and negative controls, respectively. Samples were considered to produce a cytokine if 100 spot-forming cells (SFCs)/10^6 PBMCs were detected, with P .05 and a stimulation index of 2 or more. Criteria for individual peptides were the same except that a minimum of 20 SFCs were required for a sample to be counted as positive.
Table 3 lists the 397 PG+ peptides and indicates for each non-grass pollen species whether a matching peptide with either less than 3, less than 2 or zero mismatches could be detected. The immune reactivity of the TG peptide was assessed as the number of TG grass allergic donors (n=20) having in vitro T cell response against the TG peptide.

B1: NTGA 86: Phl p wild type sequence, Table 2 (protein)
chain: MSTAEATREENVYMAKLAEQAERYEEMVEFMEKVAKTADVGELTVEERNLLSVAYKNVIGARRASWRIISSIEQKEESRGNEAYVASIKEYRTRIETELSKICDGILKLLDSHLVPSATAAESKVFYLKMKGDYHRYLAEFKAGAERKEAAENTLVAYKSAQDIALADLPTTHPIRLGLALNFSVFYYEILNSPDRACNLAKQAFDEAIAELDSLGEESYKDSTLIMQLLRDNLTLWTSDNADEGGDEIKEASKPEGEGH
modifications: Phleum Pratense
NTGA's containing at least one T cell epitope, Th+ (Col 2): 86 | No of PG+ & th+ peptides per NTGA: 1 | No of PP & Th+ peptides per NTGA: 1 | # Th+: 0

B2: NTGA 77: Phl p wild type sequence, Table 2 (protein)
chain: QEVAGDVRMTDTRADEAERGITIKSTGISLYYEMSEESLASYKGDRDGNDYLINLIDSPGHVDFSSEVTAALRITDGALVVVDCIEGVCVQTETVLRQALGERIRPVLTVNKMDRCFLELQVDGEEAYQTFSRVIENANVIMATYEDALLGDVQVYPEKGTVAFSAGLHGWAFTLTNFAKMYASKFGVDESKMMERLWGENFFDPATKKWTSKNTGSGTCKRGFVQFCYEPIKQIIEICMNDQKDKLWPMLKKLGVTMKNDEKDLMGKALMKRVMQAWLPASRALLEMMVYHLPSPSKAQRYRVENLYEGPLDDVYANAIRNCDPEGPLMLYVSKMIPASDKGRFFAFGRVFAGRVATGMKVRIMGPNFVPGQKKDLYTKSVQRTVIWMGKKQESVEDVPCGNTVALVGLDQFITKNATLTGEKEVDACPIRAMKFSVSPVVRVAVQCKVASDLPKLVEGLKRLAKSDPMVLCSIEESGEHIIAGAGELHLEICLKDLQDDFMGGAEIIVSPPVVSFRETVLDKSCRTVMSKSPNKHNRLYMEARPLEEGLPEAIDEGRIGPRDDPKVRSKILSEEFGWDKDLAKKIWCFGPETTGPNMVVDMCKGVQYLNEIKDSVVAGFQWASKEGALADENMRGICFEVCDVVLHTDAIHRGGGQVIPTARRVIFASQLTAKPRLLEPVYLVEIQAPEGALGGIYGVLNQKRGHVFEEMQRPGTPLYNIKAYLPVIESFGFSATLRAATSGQAFPQCVFDHWDVMNSDPLEVDSQSFNLVKEIRKRKGLKEQMTPLSDFEDKL
modifications: Phleum Pratense
NTGA's containing at least one T cell epitope, Th+ (Col 2): 77 | No of PG+ & th+ peptides per NTGA: 4 | No of PP & Th+ peptides per NTGA: 2 | # Th+: 0

B3: NTGA 62: Phl p wild type sequence, Table 2 (protein)
chain: MRRLSLILLAAAALLAAAVSAEPGPAPKLSPDFYSQTCPRAERIIAEVVQSKQMANPTTAAGVLRVFFHDCFVSGCDASVLIAPTHYAKSEKDADINHSLPGDAFDAVVRSKLALELECPGVVSCADILAIASRVLVTMTGGPRYPVPLGRKDSLSSNPAAPDVELPHSNFTVGRIIELFTAKGFTVQEMVALSGAHTLGFSHCQEFASRIYNYRDKGGKPAPFDPSMNPTYAKGLQAACQDYQKDPTIAAFNDIMTPGKFDNMYYVNIERGLGLLSTDEDMWSDMRTKPFVQRYAANNTDFFEDFAKAIEKLSMYGVKTGADGEIRRRCDAFNSGPNIQ
modifications: Phleum Pratense
NTGA's containing at least one T cell epitope, Th+ (Col 2): 62 | No of PG+ & th+ peptides per NTGA: 1 | No of PP & Th+ peptides per NTGA: 0 | # Th+: 2

B4: NTGA 65: Phl p wild type sequence, Table 2 (protein)
chain: AMAVDLTPRQPTKAYGGDGGAYYEWSPAELPMLGVASIGAAKLSLAAGGMSLPSYSDSAKVAYVLQGKGTCGIVLPEATKEKVVAIKEGDALALPFGVVTWWHNTPESSTELVVLFLGDTSKGHTPGKFTNFQLTGATGIFTGFSTEFVARAWDLDQDAAASLVSTQPGTGIVKLAPGHKMPVARAEDRKGMALNCLEAKLDVDIPNGGRVVVLNTVNLPLVKEVGLGADLVRIDAHSMCSPGFSCDSAYQVTYIVRGSGRVQVVGPDGKRVLETRIEGGSLFIVPRFHVVSKIADASGMEWFSIITTPNPIFSHLAGKTSVWKAISPEVLEAAFNTTPEMEKLFRSKRLDSEIFFAPS
modifications: Phleum Pratense
NTGA's containing at least one T cell epitope, Th+ (Col 2): 65 | No of PG+ & th+ peptides per NTGA: 2 | No of PP & Th+ peptides per NTGA: 0 | # Th+: 0

B5: NTGA 51: Phl p wild type sequence, Table 2 (protein)
chain: MSPAEPTREESVYMAKLAEQAERYEEMVEFMERVAKATGGAGPGEELSVEERNLLSVAYKNVIGARRASWRIISSIEQKEEGRGNDAHATTIRSYRSKIEAELAKICDGILALLDSHLVPSAGAAESKVFYLKMKGDYHRYLAEFKSGAERKEAAESTMNSYKAAQDIALADLAPTHPIRLGLALNFSVFYYEILNSPDRACNLAKQAFDEAISELDSLGEESYKDSTLIMQLLRDNLTLWTSDTNEDGGDEIKEAPAPKESGD
modifications: Phleum Pratense
NTGA's containing at least one T cell epitope, Th+ (Col 2): 51 | No of PG+ & th+ peptides per NTGA: 2 | No of PP & Th+ peptides per NTGA: 1 | # Th+: 0

B6: NTGA 56: Phl p wild type sequence, Table 2 (protein)
chain: MARLLFPLPIAAAAVSASSIHLAASRFRLPVVSAARRGTLFGGRVAVRAPARLATRGVSAGAEAGGSAARAGTVIGPEEALEWVKNDRRRLLHVVYRVGDLDKTIKFYTECLGMKLLRKRDIPEERYTNAFLGYGPEDSHFVVELTYNYGVESYDIGSGFGHFGIAVEDVEKTVELIKAKGGTVTREPGPVKGGKSVIAFIEDPDGYKFELIERGPTPEPLCQVMLRVGDLDRAIKFYEKAFGMELLRRKDNPQYKYTIAMMGYGPEDKNAVLELTYNYGVKEYDKGNAYAQIAIGTDDVYKTAEVVRQNGGQITREPGPLPGISTKITACTDPDGWKSVFVDNLDFLKELEE
modifications: Phleum Pratense
NTGA's containing at least one T cell epitope, Th+ (Col 2): 56 | No of PG+ & th+ peptides per NTGA: 1 | No of PP & Th+ peptides per NTGA: 1 | # Th+: 0

B7: NTGA 34: Phl p wild type sequence, Table 2 (protein)
chain: MSFSWICACVRAAAVAWEAGKPLSIEEVEVAPPQAMEVRVKILFTALCHTDVYFWEAKGQTPVFPRIFGHEAGGIVESVGEGVTDVAPGDHVLPVFTGECKECRHCKSAESNMCDLLRINTDRGVMISDGKSRFSIDGKPIFHFVGTSTFSEYTVMHVGCVAKINPEAPLDKVCVLSCGISTGLGASINVAKPPKGSTVAIFGLGAVGLAAAEGARIAGASRIIGIDLNANRFEEARKFGCTEFVNPKDHTKPVQEVLAEMTDGGVDRSVECTGNINAMIQAFECVHDGWGVAVLVGVPHKDAEFKTHPMNFLNERTLKGTFFGNFKPRTDLPNVVEMYMKKELEVEKFITHSVTFSEINKAFDLMAKGEGIRCIIRMEH
modifications: Phleum Pratense
NTGA's containing at least one T cell epitope, Th+ (Col 2): 34 | No of PG+ & th+ peptides per NTGA: 3 | No of PP & Th+ peptides per NTGA: 1 | # Th+: 0

B8: NTGA 76: Phl p wild type sequence, Table 2 (protein)
chain: MASHIVGYPRMGPKRELKFALESFWDGKSSAEDLEKVATDLRASIWKQMSEAGIKYIPSNTFSYYDQVLDTTAMLGAVPDRYSWTGGEIGHSTYFSMARGNATVPAMEMTKWFDTNYHFIVPELGPETKFSYASHKAVSEYKEAKALGVDTVPVLVGPVSYLLLSKAAKGVEKSFSLLSLLGGILPIYKEVVAELKAAGASWIQFDEPTLVKDLAAHELAAFSSAYAELESSLSGLNVLIETYFADVPAESYKTLTSLSGVTAYGFDLVRGTKTLDLLKSVGIPSGKYLFAGVVDGRNIWADDLAASLSTLESLEAIVGKDKLVVSTSCSLMHTAVDLVNETKLDSEIKSWLAFAAQKVVEVNALGKALVGLKDEAYFAANAAAQASRRSSPRVNNEEVQKAAAALKGSDHRRATTVSARLDAQQKKLNLPVLPTTTIGSFPQTMDLRRVRREYKAKKISEEAYVSAIKEEISKVVKIQEELDIDVLVHGEPERNDMVEYFGEQLSGFAFTANGWVQSYGSRCVKPPIIYGDVSRPNPMTVFWSKMAQSMTPRPMKGMLTGPV
modifications: Phleum Pratense
NTGA's containing at least one T cell epitope, Th+ (Col 2): 76 | No of PG+ & th+ peptides per NTGA: 5 | No of PP & Th+ peptides per NTGA: 0 | # Th+: 0

B9: NTGA 5/64: Phl p wild type full length sequence from which PG+ peptides of NTGA's 5 and 64 derive (protein)
chain: MAAKCYPTVSDEYLAAVAKARRKLRGLIAEKNCAPLMLRIAWHSAGTFDVATKTGGPFGTMRCPAELAHGANAGLDIAVRLLEPIKEQVPILSYADFYQLAGVVAVEITGGPEVPFHPGRQDKTEPPPEGRLPDATLGSDHLRQVFTAQMGLSDQDIVALSGGHTLGRCHKERSGFEGAWTANPLIFDNSYFTELLTGEKEGLLQLPTDKTLLTDPAFRPLVEKYAADEDAFFADYAEAHLKLSELGFGE
modifications: Phleum Pratense
NTGA's containing at least one T cell epitope, Th+ (Col 2): 5/64
